Among the data in patent US20040162238A1 are SRE luciferase fold-induction and ERK-Map kinase activity EC50 in Wky12-22 cells (Arrayscan) values, retold here.

What all share (assay): cell-based or functional assay
Assay [1] has as its target GPCR73a receptor (Homo sapiens (Human)) (UniProt Q8TCW9).
Assay [2] has as its target GPCR73b receptor (Homo sapiens (Human)) (UniProt Q8NFJ6).
Assay [3] shares this target. This is another data set of the same source.
Assay [4] has as its target GPCR73a receptor (Homo sapiens (Human)) (UniProt Q8TCW9). This is another data set of the same source.
Assay [5] deals with Zven1 receptor on Wky12-22 cells (rat).

Read-outs that look alike come from different tables or passages of the source.

GPCR73a receptor (Homo sapiens (Human)), sequence (Q8TCW9 whole entry): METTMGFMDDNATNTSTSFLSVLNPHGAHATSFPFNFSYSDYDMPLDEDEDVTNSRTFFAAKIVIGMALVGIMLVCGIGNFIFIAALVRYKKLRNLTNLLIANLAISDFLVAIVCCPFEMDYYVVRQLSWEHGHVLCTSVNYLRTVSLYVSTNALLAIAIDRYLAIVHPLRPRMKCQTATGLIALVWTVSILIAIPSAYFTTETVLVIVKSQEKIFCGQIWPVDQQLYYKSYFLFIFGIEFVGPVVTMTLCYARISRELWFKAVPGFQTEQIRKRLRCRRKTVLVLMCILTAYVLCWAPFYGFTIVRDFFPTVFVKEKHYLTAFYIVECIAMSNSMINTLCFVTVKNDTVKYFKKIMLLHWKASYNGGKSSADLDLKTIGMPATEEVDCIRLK
GPCR73b receptor (Homo sapiens (Human)), sequence (Q8NFJ6 whole entry): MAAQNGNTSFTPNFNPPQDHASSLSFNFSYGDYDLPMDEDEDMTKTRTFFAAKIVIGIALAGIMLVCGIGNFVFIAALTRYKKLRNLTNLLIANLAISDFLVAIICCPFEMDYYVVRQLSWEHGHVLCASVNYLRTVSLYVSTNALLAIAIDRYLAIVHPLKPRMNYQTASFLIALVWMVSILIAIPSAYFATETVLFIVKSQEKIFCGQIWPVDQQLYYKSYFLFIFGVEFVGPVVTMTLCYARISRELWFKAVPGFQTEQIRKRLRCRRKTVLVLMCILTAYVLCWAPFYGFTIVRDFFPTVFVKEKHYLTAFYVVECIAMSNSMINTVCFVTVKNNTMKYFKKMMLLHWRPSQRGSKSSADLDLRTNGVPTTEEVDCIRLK

B1: Zven2 ("endocrine-gland-derived vascular endothelial growth factor") protein purchased from Peprotech, Inc. (ligand)
chain: AVITGACERDVQCGAGTCCAISLWLRGLRMCTPLGREGEECHPGSHKVPFFRKRKHHTCPCLPNLLCSRFPDGRYRCSMDLKNINF
In the case of B1, in assay [1], the SRE luciferase fold-induction at 1 ng/ml, Rat2 cells with GPCR73a (fold-induction) was determined as 0.95; the SRE luciferase fold-induction at 3.2 ng/ml, Rat2 cells with GPCR73a (fold-induction) was 1.3; the SRE luciferase fold-induction at 10 ng/ml, Rat2 cells with GPCR73a (fold-induction) worked out at 2.6; the SRE luciferase fold-induction at 32 ng/ml, Rat2 cells with GPCR73a (fold-induction) amounted to 7.2. In assay [1], the SRE luciferase fold-induction at 320 ng/ml, Rat2 cells with GPCR73a (fold-induction) is 20.5 and the SRE luciferase fold-induction at 1000 ng/ml, Rat2 cells with GPCR73a (fold-induction) came out at 15. In assay [2], the SRE luciferase fold-induction at 3.2 ng/ml, Rat2 cells with GPCR73b (fold-induction) was 1.4; the SRE luciferase fold-induction at 32 ng/ml, Rat2 cells with GPCR73b (fold-induction) was 2.7; the SRE luciferase fold-induction at 100 ng/ml, Rat2 cells with GPCR73b (fold-induction) was 4.1; the SRE luciferase fold-induction at 320 ng/ml, Rat2 cells with GPCR73b (fold-induction) worked out at 5.8. In addition, in assay [2], the SRE luciferase fold-induction at 1000 ng/ml, Rat2 cells with GPCR73b (fold-induction) turned out to be 6.1. In addition, in assay [3], the SRE luciferase fold-induction at 1 ng/ml, Rat2 cells with GPCR73b (fold-induction) came to 1.1; the SRE luciferase fold-induction at 3.2 ng/ml, Rat2 cells with GPCR73b (fold-induction) came to 1.3; the SRE luciferase fold-induction at 10 ng/ml, Rat2 cells with GPCR73b (fold-induction) amounted to 1.8; the SRE luciferase fold-induction at 32 ng/ml, Rat2 cells with GPCR73b (fold-induction) stood at 2.8. Further, in assay [3], the SRE luciferase fold-induction at 100 ng/ml, Rat2 cells with GPCR73b (fold-induction) worked out at 5.6; the SRE luciferase fold-induction at 320 ng/ml, Rat2 cells with GPCR73b (fold-induction) came out at 8.3; the SRE luciferase fold-induction at 1000 ng/ml, Rat2 cells with GPCR73b (fold-induction) came to 8.4. Moreover, in assay [4], the SRE luciferase fold-induction at 1 ng/ml, Rat2 cells with GPCR73a (fold-induction) turned out to be 1.2; the SRE luciferase fold-induction at 3.2 ng/ml, Rat2 cells with GPCR73a (fold-induction) was determined as 1.6; the SRE luciferase fold-induction at 10 ng/ml, Rat2 cells with GPCR73a (fold-induction) was 2.5; the SRE luciferase fold-induction at 32 ng/ml, Rat2 cells with GPCR73a (fold-induction) worked out at 5.8. For the same molecule, in assay [4], the SRE luciferase fold-induction at 100 ng/ml, Rat2 cells with GPCR73a (fold-induction) came to 11.4; the SRE luciferase fold-induction at 320 ng/ml, Rat2 cells with GPCR73a (fold-induction) was found to be 24.4; the SRE luciferase fold-induction at 1000 ng/ml, Rat2 cells with GPCR73a (fold-induction) came out at 20.

B2: Zven1 protein produced in baculovirus with a C-terminal Glu-Glu tag (ligand)
chain: AVITGACDKDSQCGGGMCCAVSIWVKSIRICTPMGKLGDSCHPLTRKVPFFGRRMHHTCPCLPGLACLRTSFNRFICLAQKGLEYMPMD
With B2, in assay [4], the SRE luciferase fold-induction at 1 ng/ml, Zven1 heated at 56 C for 30 minutes, Rat2 cells with GPCR73a (fold-induction) was 1.8; the SRE luciferase fold-induction at 1 ng/ml, fresh Zven1, Rat2 cells with GPCR73a (fold-induction) was 2.5; the SRE luciferase fold-induction at 3.2 ng/ml, Zven1 heated at 56 C for 30 minutes, Rat2 cells with GPCR73a (fold-induction) was 3.7; the SRE luciferase fold-induction at 3.2 ng/ml, fresh Zven1, Rat2 cells with GPCR73a (fold-induction) was found to be 7.1. In addition, in assay [4], the SRE luciferase fold-induction at 10 ng/ml, Zven1 heated at 56 C for 30 minutes, Rat2 cells with GPCR73a (fold-induction) turned out to be 10; the SRE luciferase fold-induction at 10 ng/ml, fresh Zven1, Rat2 cells with GPCR73a (fold-induction) was 13.1; the SRE luciferase fold-induction at 32 ng/ml, Zven1 heated at 56 C for 30 minutes, Rat2 cells with GPCR73a (fold-induction) was found to be 14.8; the SRE luciferase fold-induction at 32 ng/ml, fresh Zven1, Rat2 cells with GPCR73a (fold-induction) is 18.7. Moreover, in assay [4], the SRE luciferase fold-induction at 100 ng/ml, Zven1 heated at 56 C for 30 minutes, Rat2 cells with GPCR73a (fold-induction) is 18.6 and the SRE luciferase fold-induction at 100 ng/ml, fresh Zven1, Rat2 cells with GPCR73a (fold-induction) worked out at 20.5. In assay [5], this molecule displayed an ERK-Map kinase activity EC50 in Wky12-22 cells (Arrayscan) of 0.5 nM.
